Assay [1] concerns the target CHC17 clathrin heavy chain (human (endogenous in HeLa)) (UniProt Q00610).
Assay [2] has as its target CHC22 clathrin heavy chain (human (endogenous in HeLa)) (UniProt P53675).
In another assay the target is CHC22Δx9 (human) (UniProt P53675). Nature of the assay: deep-etch electron microscopy; purified CHC isoforms adsorbed on mica flakes, quick-frozen, freeze-fractured, deep-etched, platinum-replicated; CHC22Δx9 released in high Tris buffer pH 7.0, CHC17 released in HEPES buffer pH 7.0.
In assay [3] the target is T1, CHC17 clathrin heavy chain (human (endogenous in HeLa)), Q00610.
T1 chain: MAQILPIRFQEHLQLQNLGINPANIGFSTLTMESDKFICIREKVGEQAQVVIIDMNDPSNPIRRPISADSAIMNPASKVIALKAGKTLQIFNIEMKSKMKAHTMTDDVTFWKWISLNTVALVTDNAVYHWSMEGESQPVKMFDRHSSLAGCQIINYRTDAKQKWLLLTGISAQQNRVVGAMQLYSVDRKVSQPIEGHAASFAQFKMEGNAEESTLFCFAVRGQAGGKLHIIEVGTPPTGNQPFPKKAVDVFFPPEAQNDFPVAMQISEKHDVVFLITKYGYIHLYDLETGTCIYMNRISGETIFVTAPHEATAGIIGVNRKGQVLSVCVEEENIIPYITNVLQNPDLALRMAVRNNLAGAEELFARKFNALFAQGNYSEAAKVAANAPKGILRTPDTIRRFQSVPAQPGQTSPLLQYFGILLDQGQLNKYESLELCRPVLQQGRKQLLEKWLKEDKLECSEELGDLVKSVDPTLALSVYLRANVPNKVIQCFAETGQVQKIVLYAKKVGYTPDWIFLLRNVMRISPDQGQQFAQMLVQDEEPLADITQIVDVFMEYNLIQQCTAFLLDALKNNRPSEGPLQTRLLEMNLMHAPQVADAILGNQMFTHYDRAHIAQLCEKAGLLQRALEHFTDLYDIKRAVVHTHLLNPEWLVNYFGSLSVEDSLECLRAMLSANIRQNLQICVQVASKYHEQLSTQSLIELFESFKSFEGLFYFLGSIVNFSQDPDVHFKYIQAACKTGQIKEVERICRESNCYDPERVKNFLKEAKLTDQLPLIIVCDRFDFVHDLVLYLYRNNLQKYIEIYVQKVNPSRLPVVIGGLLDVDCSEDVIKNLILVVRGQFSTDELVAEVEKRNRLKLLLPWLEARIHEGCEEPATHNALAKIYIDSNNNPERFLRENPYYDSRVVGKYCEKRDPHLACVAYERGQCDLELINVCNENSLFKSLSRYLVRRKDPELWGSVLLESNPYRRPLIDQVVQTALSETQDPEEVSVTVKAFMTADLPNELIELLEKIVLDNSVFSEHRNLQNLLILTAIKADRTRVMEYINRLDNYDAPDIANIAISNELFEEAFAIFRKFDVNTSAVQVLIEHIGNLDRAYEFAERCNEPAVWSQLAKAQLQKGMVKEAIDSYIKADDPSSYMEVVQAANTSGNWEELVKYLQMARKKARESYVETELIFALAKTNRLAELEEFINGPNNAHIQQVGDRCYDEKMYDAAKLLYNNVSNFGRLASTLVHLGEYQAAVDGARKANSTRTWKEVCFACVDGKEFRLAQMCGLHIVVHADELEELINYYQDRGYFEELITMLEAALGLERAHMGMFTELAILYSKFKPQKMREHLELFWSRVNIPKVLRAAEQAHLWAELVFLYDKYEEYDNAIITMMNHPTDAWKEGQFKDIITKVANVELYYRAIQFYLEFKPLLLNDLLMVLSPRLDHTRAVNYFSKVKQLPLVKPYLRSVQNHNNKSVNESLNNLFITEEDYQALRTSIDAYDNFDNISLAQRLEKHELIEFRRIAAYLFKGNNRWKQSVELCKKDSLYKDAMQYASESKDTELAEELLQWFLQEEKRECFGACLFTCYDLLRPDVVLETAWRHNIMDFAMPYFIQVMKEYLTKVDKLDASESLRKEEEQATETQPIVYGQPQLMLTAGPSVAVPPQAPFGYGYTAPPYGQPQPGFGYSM
The description is as above. Particulars: remark: other sources report otherwise.

By stoichiometry N is commonly meant the number of molecules, sites or subunits per partner or assembly.

UniProt P53675, sequence (P53675 whole entry, canonical isoform): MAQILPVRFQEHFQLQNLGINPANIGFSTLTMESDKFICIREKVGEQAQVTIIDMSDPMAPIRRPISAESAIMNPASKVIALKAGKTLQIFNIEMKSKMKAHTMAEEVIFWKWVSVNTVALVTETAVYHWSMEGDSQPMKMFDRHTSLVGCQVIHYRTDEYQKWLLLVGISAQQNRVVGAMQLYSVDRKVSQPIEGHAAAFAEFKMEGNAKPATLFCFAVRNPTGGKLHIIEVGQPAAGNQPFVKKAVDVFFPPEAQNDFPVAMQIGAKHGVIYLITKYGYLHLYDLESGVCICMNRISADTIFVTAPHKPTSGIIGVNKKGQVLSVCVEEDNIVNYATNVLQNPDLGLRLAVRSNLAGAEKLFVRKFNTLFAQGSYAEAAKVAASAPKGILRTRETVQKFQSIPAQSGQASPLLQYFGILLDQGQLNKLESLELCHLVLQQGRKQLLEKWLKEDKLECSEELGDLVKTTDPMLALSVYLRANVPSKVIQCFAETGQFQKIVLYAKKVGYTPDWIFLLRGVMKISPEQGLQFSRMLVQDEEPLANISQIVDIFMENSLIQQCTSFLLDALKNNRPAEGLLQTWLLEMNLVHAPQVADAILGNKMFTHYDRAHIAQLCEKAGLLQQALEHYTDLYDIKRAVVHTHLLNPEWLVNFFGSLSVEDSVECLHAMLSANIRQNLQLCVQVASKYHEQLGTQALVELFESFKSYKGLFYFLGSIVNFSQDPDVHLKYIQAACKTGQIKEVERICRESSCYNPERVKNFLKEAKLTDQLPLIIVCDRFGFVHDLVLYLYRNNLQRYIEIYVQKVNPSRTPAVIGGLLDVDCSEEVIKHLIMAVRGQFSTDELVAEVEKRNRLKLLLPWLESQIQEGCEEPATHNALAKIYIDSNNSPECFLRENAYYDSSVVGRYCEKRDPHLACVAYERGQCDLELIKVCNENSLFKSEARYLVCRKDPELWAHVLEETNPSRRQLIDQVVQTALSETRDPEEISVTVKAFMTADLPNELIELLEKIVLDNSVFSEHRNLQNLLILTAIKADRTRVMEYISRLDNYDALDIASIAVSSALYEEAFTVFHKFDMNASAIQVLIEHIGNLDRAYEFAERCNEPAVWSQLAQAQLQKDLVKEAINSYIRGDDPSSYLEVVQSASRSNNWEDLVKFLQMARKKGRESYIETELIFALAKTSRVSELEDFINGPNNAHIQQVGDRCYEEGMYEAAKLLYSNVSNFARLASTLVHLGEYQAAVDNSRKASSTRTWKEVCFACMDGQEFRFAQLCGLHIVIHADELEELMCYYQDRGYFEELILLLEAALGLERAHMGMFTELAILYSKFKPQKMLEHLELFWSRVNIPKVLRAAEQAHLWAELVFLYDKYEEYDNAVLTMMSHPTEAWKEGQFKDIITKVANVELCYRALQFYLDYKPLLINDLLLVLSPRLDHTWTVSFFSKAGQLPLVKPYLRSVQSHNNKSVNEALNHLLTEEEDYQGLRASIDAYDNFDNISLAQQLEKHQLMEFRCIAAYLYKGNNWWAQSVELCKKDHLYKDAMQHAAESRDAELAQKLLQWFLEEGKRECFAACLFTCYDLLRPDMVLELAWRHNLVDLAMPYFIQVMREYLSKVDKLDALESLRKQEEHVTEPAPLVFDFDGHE

For “70-kDa heat-shock cognate protein (Hsc70) (from UniProt P63018 1-646) (enzyme)”, the release of CHC from HeLa CCVs into the supernatant, S/(S+P) by immunoblot, with uncoating complex (Hsc70 1.3 μM + GST-auxilin(401–910) 0.13 μM) plus ATP 0.5 mM, 10 min, 37 °C in assay [1] was over 50%; in assay [2], 16%. With “CHC22Δx9 (from UniProt P53675 1-1640) (natural protein)”, the stoichiometry N with CHC22Δx9 (human) turned out to be 3.

B1: CHC17 clathrin heavy chain, Q00610 1-1675 (natural protein)
chain: T1 chain
Turning to B1, in assay [3], the stoichiometry N was determined as 3.
